Data taken from article PMC8791944, “GLUT3 inhibitor discovery through in silico ligand screening and in vivo validation in eukaryotic expression systems” (Scientific Reports, 2022).
Residue numbers refer to the chain shown, from its start. In names and notes the source's numbering stands.

Legend:
[1] = substrate: OC[C@H]1OC(O)[C@H](O)[C@@H](O)[C@@H]1O; test: cells, lysate or membranes; format: cell-based, human; settings: other: wild-type GLUT3 in hxt^0 cells
Description: Hexose transporter deficient yeast strains (hxt^0) EBY.VW4000 for expression of GLUT5, EBY.S7 (carrying the fgy1 mutation) for expression of GLUT1-3, and SDY.022 (EBY.S7 Δerg4) for expression of GLUT4 cells, and corresponding plasmids[65],[66],[73] were from the labs of Drs.
The plasmids containing functional constructs of GLUT1-5 were transformed in the corresponding hxt^0 strains[65],[66],[73] (EBY.VW4000 for GLUT5S72Y, EBY.S7 for GLUT1, GLUT2∆loopS_Q455R, GLUT3 and GLUT3S66Y, and SDY.022 for GLUT4) and grown on 2% (w/v) agar plates of the respective media supplemented with 1% (w/v) maltose. An initial culture of ~ 10 ml was started with a few colonies and grown for 2–3 days if the media was SC-uracil with 1% (w/v) maltose (GLUT1, GLUT3, GLUT4) or 1–2 days if the media was YEP with 1% (w/v) maltose and 100 µg/ml geneticin G418 (GLUT2∆loopS_Q455R and GLUT5S72Y). […] Then, cells were transferred in the same media so that OD600nm ~ 0.5 and grown further for 1–2 days.
For transport activity assay, cells in the hexose media were centrifuged (1000×g, 5 min, room temperature), washed once with PBS buffer (10 mM Na2HPO4, 1.8 mM KH2PO4, 2.7 mM KCl, 137 mM NaCl, pH 7.4), and resuspended in PBS buffer at an OD600nm ~ 10; each assay contained 100 µl of this cell solution. […] The radioactivity was determined with a scintillation counter (Tri-carb 2900TR, Perkin Elmer, USA).

[2] = substrate: OC[C@H]1OC(O)[C@H](O)[C@@H](O)[C@@H]1O; test: cells, lysate or membranes; settings: other: GLUT3S66Y in hxt^0 cells

B1: GLUT3 (Homo sapiens) (protein)
chain: MGTQKVTPALIFAITVATIGSFQFGYNTGVINAPEKIIKEFINKTLTDKGNAPPSEVLLTSLWSLSVAIFSVGGMIGSFSVGLFVNRFGRRNSMLIVNLLAVTGGCFMGLCKVAKSVEMLILGRLVIGLFCGLCTGFVPMYIGEISPTALRGAFGTLNQLGIVVGILVAQIFGLEFILGSEELWPLLLGFTILPAILQSAALPFCPESPRFLLINRKEEENAKQILQRLWGTQDVSQDIQEMKDESARMSQEKQVTVLELFRVSSYRQPIIISIVLQLSQQLSGINAVFYYSTGIFKDAGVQEPIYATIGAGVVNTIFTVVSLFLVERAGRRTLHMIGLGGMAFCSTLMTVSLLLKDNYNGMSFVCIGAILVFVAFFEIGPGPIPWFIVAELFSQGPRPAAMAVAGCSNWTSNFLVGLLFPSAAHYLGAYVFIIFTGFLITFLAFTFFKVPETRGRTFEDITRAFEGQAHGADRSGKDGVMEMNSIEPAKETTTNV
notes: expressed in transfected cells; host or cells: Saccharomyces cerevisiae hxt0 strain EBY.S7 (fgy1)
Km [1]: 3.11 ± 0.42 mM

B2: GLUT3S66Y (Homo sapiens; S66Y) (protein)
chain: B1 chain with S66Y
Km [2]: 1.42 ± 0.17 mM
